From patent US20100158927A1

Target: HLA-A2 molecules on the cell surface (total) (human)
Experiment: flow cytometry on 501A melanoma cells, PE-conjugated BB7.2

- MFI: 56.4 MFI
Substance: anti-HLA-A2 mAb BB7.2 (antibody)
